This sample holds only a part of the variants without activity.
B1: TPR 5TU (parent)
chain: GGAUCUUCUCGAUCUAACAAAAAAGACAAAUCUGCCACAAAGCUUGAGAGCAUCUUCGGAUGCAGAGGCGGCAGCCUUCGGUGGCGCGAUAGCGCCAACGUUCUCAACUAUGACACGCAAAACGCGUGCUCCGUUGAAUGGAGUUUAUCAUG

Variants of: B1
Test: polymerase ribozyme fitness, log enrichment relative to wild type (log ratio); higher = more active; in vitro selection for triplet polymerase activity
Method in brief: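 Fitness is a logarithmic measure of how a genotype enriched relative to the wild type, with replicate averages weighted by inverse variance. The logarithm uses base 2, and enrichment came from Illumina sequencing of input and output libraries. Those libraries were PCR-built, transcribed mutants of each subunit of a heterodimeric triplet polymerase ribozyme, passed through one triplicate in vitro selection round that included frozen incubation at −7 °C, gel excision of extended constructs and streptavidin-bead capture. Genotypes were kept only if they had ≥10 input reads and ≥1 read per output.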

Variant	polymerase ribozyme fitness (log ratio)
GGAUCUUCUCGAUCUAACAAAAAAGACACAUUUGGCACAAAGCUUGAGAGCAUCUUCGGAUGCAGUGGCGGCAGCCUUCGGUGGCGAGAUAGCCCCAACGUUCUCAUCUAUGACACGCAAAACGUGUGCUCCGUUGAAUGGAGUUUAUCAUG	≤ -4.2
GGAUCUUCUCGAUCUAACAAAAAAGACACAUCUGCCACAAAGCUUGAGAGCAUCUACGGAUGCAGAGGCGGCAGCCUUCUGUGGCGCGAUAGCGCCAACGUUCUCAACUAUGACACGCAAGACGCGUGCUCCGUUGAAUGGAGUUUAUCAUG	≤ -4.2
GGAUCUUCUCGAUCUAACAAAAAAGACAGAUCUGCCACAAAGCUUGAGAACAUCUUCGGAUGCAGAUGCGGCAGGCUUCGGUGGAGCGAUAGCGCCAACGUUCUCAACUAUGACACGCAAAAGGGGUGCUCUGUUGAAUGGCGUUUAUCAUG	≤ -4.2
GGAUCUUCUCGAUCUAACAAAAAAGACAGAUCUGCCACAAAGCUUGAGAGCAUCUUCGGAUGCAGAGGCGGCAGCCUUCGGUGGCGCGAUAGCGCCAACGUUGGCAACUAUGACACGCAAAACGCGUGCUCCGUUGAAUGGAGUUUAUCAUG	≤ -4.2
GGAUCUUCUCGAUCUAACAAAAAAGACACAUCUGCCACAAAGCUUGAGAGCAUCAUCGGAUGCAGAGGCGGCAGACUUCGGUGGUGCGAUAGCGCCAACGUUCUCAACUAUGACACGCAAAACGCGUGCUCCGUUGAAUGCAGUUUAUCAUG	≤ -4.2
GGAUCUUCUCGAUCUAACAAAAAAGACACAUCUGCCACAAAGCAUGAGAGCAUCUUCGUAUGCAGAGGCGGUAGCCUUCGGUGGCGCGAUAGCGCCAACGUUCUCAACUAUGACACGCAAAACGCGUGCUGCGUUGAAUGGAGUUUAUCAUG	≤ -4.2
GGAUCUUCUCGAUCUAACAAAAAAGACACAUCUGCCACAAAGCUUGAGAGCAUCAUUGGAUGCAGAGGCGGCAGCCUUCGGUGGCGCGAGCGCGCCAACGUUCUCAACUAUGACACGCAAAACGCGUGCUCCGUUGAAUGGAGUUUAGCAUG	≤ -4.2
GGAUCUUCUCGAUCUAACAAAAAAGACACAUCUGCCACAAAGCUUGACAGCAUCUUCGGAUGCAGAGGCGGCAGCCUUAGGUGGCGCGAUAGCGCCAACGUUCUCAACUAUGACACGCAAAGCUCGUGCUCCGUUGAAUGGAGAGUAUCAUU	≤ -4.2
GGAUCUUCUCGAUCUAACAAAAAAGACAGAUCUGCCACAAAGCUUGAGAGCAUCUUCGGAUGCAGAGGCGGCAGCCUUCGGUGGCGCGAUAGCGGCAACGUUCUCAACUAUGACACGCAAAACGCGGGCUCCGUUGAAUGGAGUUUAUCAUG	≤ -4.2
GGAUCUUCUCGAUCUAACAAAAAAGACAGAUCUGACACAAAGCUUGAGAGCAUCUCCGGAUGCAGAGGGGUCAGCCUUCGGUGGCGCGAUGGCGCCAUCGUUCUCAACUAUGACACGCAAAACGCGUGCUCCGUUGAGUGGAGUUUAUCAUG	≤ -4.2
GGAUCUUCUCGAUCUAACAAAAAAGACACAUCUGCCACAAAGCUUGAGAGCAUCUUCGGAUGCAGACGCGGCAGCCUUCGGUGGCGCGUUAGCUCCAACGUUCUCAACUAUGACACGCAAAACGCGUGCUCCGUUGAAUGGAGUUUAUCAUG	≤ -4.2
GGAUCUUCUCGAUCUAACAAAAAAGACAGAUCUGCCACAACGCUUGGGAGCAUCUUCGGAUGCAGAGGCGGCAGCCUUCGGUGGGGCGAUAUCGCCAACGUUCGCAACUAUGACACGCAAAACGCGUGCUCCGUUGGAUGUAGUUUAUCAUG	≤ -4.2
GGAUCUUCUCGAUCUAACAAAAAAGACAGAUCUGCCACAAAGAUUGACAGCAUCUUCGGAUGCAGAGGCGGCAGCCUUCGGUGGCGCGAUAGGGCCAACGUUCUCAACUAUGACACGCAAAACGCCUGCUCCGUUGAAUGGAGUUUAUCAUG	≤ -4.2
GGAUCUUCUCGAUCUAACAAAAAAGACAGAUCUGCCACAAAGCUUGAGAGCAUCUUCGGAUGCAGAGGUGGCAGCCUUCGGUGGCGCGAUAGCGCCAACGUUCUCAACUAUGACACGCAAAACGCGUGCUCCGUUGAAUGGAGUUUAUCAUG	≤ -4.2
GGAUCUUCUCGAUCUAACAAAAAAGACACAUCUGCCACAAAGCUAGAGAGCAUCUUCGGAUGCAGAGGCGGCAGCCUUCGGUGGCGCGAUAGCGGCAACGUUCUCAACUAUGACACGCAAAACGCGUGCUCCGUUGAAUGGAGUUUAUCAUG	≤ -4.2
GGAUCUUCUCGAUCUAACAAAAAAGACACAUCUGCCACAAAGCUUGAGAGCAUCUUCGGAUGCAGAGGCGGCAGCCUUCGGUGACGCGAUAGCGCCAACGUUCUCAACUAUGACACGCAAAACGCGUGCUCCGUUGAAUGGAGUUUAUCAUG	-4.17
GGAUCUUCUCGAUCUAACAAAAAAGACAGAUCUGCCACAAAGCUUGAGAGCCUCUUUGGAUGCAGAGGCGGCAGCCUUCGGUGGCGCGAUAGUGCCAACGUUCUCAACUAUGACACGCAAAACGCGUGCUCCGUUGAAUGGAGUUUAUCAUG	≤ -4.2
GGAUCUUCUCGAUCUAACAAAAAAGACAUAUCUGCCACCUAGCUGGAGAGCAUCUUCGGAUGCAGAGGCGGCAGCCGUCGGUGGCGCGAUAGCGCCAACGUUCUCAACUAUGACACGCAAAACGCGUGCUCCGUUGAAUGGAGUUUAUCAUG	≤ -4.2
GGAUCUUCUCGAUCUAACAAAAAAGACAGAUCUGCCACAAAGCUUCCGAGCAUCUUCGGAUGCAGAGGCGGCAGCCUUCGGUGGCGCGAUAGCGCCAACGUUCUCAACUAUGACACGCAAAACGCGUGCUCUGUUGAAUGGAGUUAAUCAUG	-4.16

Variant	polymerase ribozyme fitness (log ratio)
GGAUCUUCUCGAUCUAACAAAAAAGACAUAUCUGCCUCAAAGCUUGAGAGCAUCUUCGGAUGCAGAGGCGGGAGCCUUCGGUGGCGCGAUAGCGUCAACGUUCUCAACUAUGAUACGCAAAACGCGUGCUCCGUUGAAUGGAUUUUAUCAUG	≤ -4.2
GGAUCUUCUCGAUCUAACAAAAAAGACACAUCUGCCACAAAGCUUGAGAGCAACUUCGGAUGCAGAGGCGGCAGCCUUCGGUGCCGCGAUAGUGCCAACGUUCUCAACUAUGACACGCAAGACGGGUGCUCCGUUGAAUGGAGUUUAUCAUG	≤ -4.2
GGAUCUUCUCGAUCUAACAAAAAAGACACAUCUGCCACAAAGCUUGAGAGUAUCUUCGGAUGCAGAGGCGGCAGCCUUCGGUCGCGCGAUAGCGUCAACGUUCUCAACUAUGACACGCAAAACGCGUGCUCCGUUGGAUGGACUUUAUCAUG	≤ -4.2
GGAUCUUCUCGAUCUAACAAAAAAGACACAUCUGUCACAAAGCUUGAGAGCAACUUCGGAUGCAGAGGCGGCAGCGUUCGGUGGCGCGAUAACGCCAAAGUUCUCAACUAUGACACGCAAAGCUCGUGCUCCGUUGAAUGGAGUUUAUCAUG	≤ -4.2
GGAUCUUCUCGAUCUAACAAAAAAGACACAUCUGCCACAAAGCUUGAGAGCAUCUUCGGAUGCAGAGGCGGCAGCCUUCGGUGGUGCGAUAGCGCCAACGUUCUCAACUAUGACACGCAAAACGCGUGCUCCGUUGAAUGGAGUUUAUCAUG	-3.79
GGAUCUUCUCGAUCUAACAAAAAAGACAGAUCUGCCACAAAGCUUGAGAACCUCUUCGGAUGCAGAGGCGGCAGCCUUCGGUGGCGCGAUAGCGCCAACGGUCUCAACUAUGACACGCAAAACGCGUGCUCCCUUGAAUGGAGUUUAUCAUG	≤ -4.2
GGAUCUUCUCGAUCUAACAAAAAAGACACAUAUGCCACAAAGCUUGAGAGCAUCUUCGGAUGCAGAGGCGGCAGCCUUCGGUGGCGCGAUAGCGCCAACGUUCUCAACUAUGACACGCAAAACGCGUGCUCCGUUGAAUGGAGUUUAUCAUG	≤ -4.2
GGAUCUUCUCGAUCUAACAAAAAAGACACAUCUGCGACAAAGCUUGAGAGCAUCUUCGGAUGCAGAGGCGGCAGCCUCCGGUGGCGCGAUAGGGCCGACGUUCUCAACUAUGACACGCAAAACGCGUGCUCCGUUGAAUGGAGUUUAUCAUG	≤ -4.2
GGAUCUUCUCGAUCUAACAAAAAAGACAGAUCUGCCACAAAGCUUGAGAGCAUCUUCGGCUGCAGAGGCGGCAGCCUUCGGUGGCGCGGUAGCGCCAACGUUCUCAACUUUGACACGCAAAACGCGUGCUCCGUUGAAUGGAAUUUAUCAUG	≤ -4.2
GGAUCUUCUCGAUCUAACAAAAAAGACACAUCAGCCACAAUACUUGAGAGCAUCUUCGGAUGCAGAGGCGGCAGCCUUCGGUCGCGCGAUAGCGCUAACGUUCUCAAGUAUGACACGCAAAACGCGUGCUCCGUUGAAUGGAGUUUAUCAUG	≤ -4.2
GGAUCUUCUCGAUCUAACAAAAAAGACAUAUCUGCCGCAAAGCUUGAGAGCAUUUUCGGAUGCAGAGGCGGCAGCCUUCGGUGGCGGGAUAGCGCCAACGUUCUCAACUAUGACAAGCAAAACGCGUGCUCCGUUGAAUGGAGUUUAUCAUG	≤ -4.2
GGAUCUUCUCGAUCUAACAAAAAAGACAGUUCUGCCACAAAGUUUGAGAACAUCUUCGGAUGCAGAUGCGGCAGCCUUGGGUGGCGCUAUAGCGCCAAAGUUCUCAACUAUGACACGCAAAACGCGUGCUCCGUUGAAUGAAGUUUAUCAUG	≤ -4.2
GGAUCUUCUCGAUCUAACAAAAAAGACAGAUCUGCCACAAAGCUUGAGAGCAUCGUCGGAUGCAGAGGCGGCAGCCUUCGGUGGCGCGAUAGCACCAACGUUCUCAAAUAUGACACGCGAAACGCGUGCUCCGUUGAAUGGAGUUUAUCAUG	≤ -4.2
GGAUCUUCUCGAUCUAACAAAAAAGACAGACCUGCUACAAAGCUUGAGAGCAUGUUCGGAUGCAGAGGCGGCAGCCUUCGGCGGCCCGAUAGUGCCAACGUUCUCAACUAUGACACGCAAAACGCGUGCUCCGUUGAAUGGAGUUUAUCAUG	≤ -4.2
GGAUCUUCUCGAUCUAACAAAAAAGACAUAUCUGCCCCAAAGCUUGAGAGCAUCUUCGGAUGCAGAGGCGGCAGCCUUCAGUGGCGCCAUAGCGCCAACGUUCUCAACUAUGACACGCAAAACGCGUGCUCCUUUGAAUGGAGUUUAUCAUG	≤ -4.2
GGAUCUUCUCGAUCUAACAAAAAAGACAGAUCUGCCACAAAGCUUGAGAGCAUCUACGGAUGCAGAGGCGGCAGCCCUCGGUGGCGCGAUAGCGCCAACGUUCUCAACUAUGACACGCAAAACGCGUGCUCCGUUGAAUGGAGUUUAUCAUG	≤ -4.2
GGAUCUUCUCGAUCUAACAAAAAAGACACAUCUGCCACAAAGCUUGAGAGCAUCUUGGGAUGCAGAGGCGACAGCCUUCGGUGGCGCGACAGCGCCAACGUUCUCAACUAUGACACGCAAAACGCGUGCUCCGUUGAAUGGAGUUUAUCAUG	≤ -4.2
GGAUCUUCUCGAUCUAACAAAAAAGACAGAUCUGCCACAAAGCUUGAGAGCAUCUUCGGAUGCAGAGGCGGCUGCCUUCGGUGGCGCGAUGGCGCCAAUGUUCUCAACUAUGACUCGCAAAACGCGUGCUCCGUUGUAUGGAGUUUAUCAUG	≤ -4.2
GGAUCUUCUCGAUCUAACAAAAAAGACACAUCUGCCACAAAUCUUGAGAGCAUGUUCGGAUGCAGAGGCGGCAGCCUUCGGUGGCGCGAUAGGCCCAUCGUUCUCAACUAUGACACGCAAAACGCGUGCUCCGUUAAAUGGGGUUUAUCAUU	≤ -4.2

Reference: the RNAGym collection of RNA variant scans (doi:10.1073/pnas.2313332121)
